We go through one molecule from US20250145706A1.

Test [1] deals with IGHV4-39/IGLV3-21^R110 BCR on CLL B cells (PBMCs) of a patient (human). The experiment in a line: flow cytometry; PBMCs of a CLL patient with IGHV4-39/IGLV3-21^R110 BCR, co-stained with anti-CD19 VioBright515. (In general: Flow cytometry measures light scatter and fluorescence of single cells or particles in a stream.)
In test [2] the target is BCRs of a CLL patient, which does not harbor IGLV3-21^R110 (human). Briefly: flow cytometry; PBMCs of a patient with non-IGLV3-21^R110 CLL, co-stained with anti-CD19 (axis label anti-CD19 FITC).
The target in test [3] is IGHV3-21/IGLV3-21^R110 BCR, membrane-bound on murine TKO cells (human). The experiment in a line: flow cytometry; cell mix A (1:1 IGHV3-21/IGLV3-21^R110 BCR TKO cells and BCR-negative TKO cells), co-stained with anti-IgM-PE.
The target in test [4] is IGHV3-21/IGLV3-21^G110 BCR, membrane-bound on murine TKO cells (human). The experiment in a line: flow cytometry; cell mix B (1:1 IGHV3-21/IGLV3-21^G110 BCR TKO cells and BCR-negative TKO cells), co-stained with anti-IgM-PE.

B1: mAb01-01 (antibody, V domains shown)
VH: QVQLQQSGPGLVQPSQSLSITCTVSGFSLTSYGIHWVRQSPGKGLEWLGVIWRGGGTDSNAAFMSRLSITKDNSKSQVFFKMNSLQADDTAIYYCARSRYDEEESMNYWGQGTSVTVSS
VL: QIVLTQSPASLSASVGETVTITCRASGNIHSYLAWYQQKQGKSPQLLVYNAKTLADGVPSRFSGSGSGTQYSLKINSLQPEDFGSYYCQHFWNTPPTFGAGTKLELKR
In test [1], B1 returned a % of gated cells in Q5, anti-CD19 positive and mAb01-01-APC negative of 0.29%; a % of gated cells in Q6, anti-CD19 positive and mAb01-01-APC positive of 98.7%. For the same molecule, in test [2], the % of gated cells in Q5, anti-CD19 positive and mAb01-01-APC negative turned out to be 98.8%; the % of gated cells in Q6, anti-CD19 positive and mAb01-01-APC positive was 0.28%. Moreover, in test [3], the % of gated cells (Gate P1) in Q1, anti-IgM-PE positive and mAb01-01-APC negative stood at 2.78%; the % of gated cells (Gate P1) in Q2, anti-IgM-PE positive and mAb01-01-APC positive came to 45.5%. In addition, in test [4], the % of gated cells (Gate P1) in Q1, anti-IgM-PE positive and mAb01-01-APC negative amounted to 42.2%; the % of gated cells (Gate P1) in Q2, anti-IgM-PE positive and mAb01-01-APC positive turned out to be 1.11%.
